Assay results from paper PMC3817407.

B1: AS30_35 (protein)
chain: MDKRLQQLREEYKNVQIPKELDIIVEKALQQEPKKKRIVMWPTSAAIAAAILFTALVNINPDAAQAMSKIPVIGKIVKAITFIEIKEEKDQSSIDVKTPALSGLSNKELENSINEKYLKESQQLYKEFIQSTSKNKKGHLSIYSDYETVTDTPDLLSIRRNIETTQASSYTQSRYITIDKKNDILLTLKSLFKDERYIKVISQNIKEQMKQQMKEDPNKIYWLTDEDAEPFKTILPDQTFYITEDHKLVISFDEYEVAPGYMGVTEFTIPTGVISNLLVGERYIR
B2: AS31_34 (protein)
chain: MNKEKLSDHLKSEWKKIDQTANPSIPNQKELLHQLSQMKAEYRKKLLQEIILFVFCALMVVSAAILAFTQAPAVFIVLQVCVLAVLPILIAAEKKRHLGECEVKRG
B3: AS33_375 (protein)
chain: MMALSKKMLEQEPSEIELLLPWHAAGTLNARDARRVEDALARDPELAKQYAAIRGEYEETIHLNESLGAPSARAMQKLFGAIDAEPARETGSLPLSARIATFFASLSPRTLAWSASLGAVALVLQAGIIGAVLMKTQPTTFQTASLSTSAPITRELGAAVAPARALVRFTPEARVADITALLDSYQASIIGDAKGGMFRLQFDKAMSQDELASLLGRMQREKFVNLAVAAP
B4: AS33_423 (protein)
chain: MMAMSNTMPDPREPGDVEALLPWYAAGTLNARDARRVADALDRDPALARQYAVILEEYASTIELNESLGAPSSRAMQKLFAAIDAEPARAPGAGQGLGARFAGFFAGLSPKALAWSASVAGLALLLQAGLIGALLTWPHAAPVQTAAYQPQREVARAPASSPAPATVSPPAAAMADRAADAGKSTPPMVMAERSGGPVVRSLAPQSGPRVLVKFAPEARASEIAALLDQYNAVVVDSSRGGLFRLQFGTQSLSKQDQETLIGRLQKEPVVSVVLSAP
B5: AS35_3582 (protein)
chain: MNPQKHSASVAEEQMLAHFRAHAPQQPAPALDQAILAAARRQAAHVEPARSWWRRWLEASRRPRWQAAFASLLGVALVLGLVSHNVLDDAERQARPEVAFSDVPLRDGVAGAAAAKRAMRAPAAPAPLSGEMSEPPALLASYASSGEAPQLMAEAAPPAPAALADRPPAQAAQQAKVQAALAGDFVAQARGKAVAVKPEVLDEALGAVLALREQGKTEQAATQLAELQKRFPGENLVERLERLATIAASARKRP
B6: AS37_2513 (protein)
chain: MSSAPATKEEVDFALKVRRALDERAASLPDATTDRLAAARRAALARKKPDAAIVLVPALAGSAGTLELRPPGEPRKSLARRLARAWPLALLLAGLIGIAYWEDMQRTAELADIDAAMLSDNLPLTAYLDHGFNAYLSHTH

Molecular target: T1, ECF17_1458
T1 chain: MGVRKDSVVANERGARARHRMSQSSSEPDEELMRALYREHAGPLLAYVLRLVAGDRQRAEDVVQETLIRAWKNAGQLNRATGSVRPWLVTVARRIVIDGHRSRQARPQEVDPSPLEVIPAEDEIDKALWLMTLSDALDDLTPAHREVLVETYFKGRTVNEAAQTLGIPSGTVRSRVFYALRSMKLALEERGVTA

Binder | fold repression
B1 | 1.52
B2 | 4.02
B3 | 11.3
B4 | 8.41
B5 | 7.06
B6 | 5.87

These binders were tested against ECF26_4464.

Binder | fold repression
B1 | 2.19
B2 | 3.63
B3 | 14.1
B4 | 9.42
B5 | 10.7
B6 | 7.32

Molecular target: T2, ECF27_4265
T2 chain: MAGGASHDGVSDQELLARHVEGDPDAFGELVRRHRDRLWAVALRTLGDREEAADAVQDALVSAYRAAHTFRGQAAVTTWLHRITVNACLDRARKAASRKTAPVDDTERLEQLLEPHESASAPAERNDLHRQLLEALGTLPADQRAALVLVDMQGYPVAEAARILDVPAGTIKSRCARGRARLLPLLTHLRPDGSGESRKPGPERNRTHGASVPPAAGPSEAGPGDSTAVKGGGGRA

Binder | fold repression
B1 | 1.44
B2 | 1.48
B3 | 5.34
B4 | 5.38
B5 | 2.28
B6 | 2.71

Molecular target: T3, ECF04_1609
T3 chain: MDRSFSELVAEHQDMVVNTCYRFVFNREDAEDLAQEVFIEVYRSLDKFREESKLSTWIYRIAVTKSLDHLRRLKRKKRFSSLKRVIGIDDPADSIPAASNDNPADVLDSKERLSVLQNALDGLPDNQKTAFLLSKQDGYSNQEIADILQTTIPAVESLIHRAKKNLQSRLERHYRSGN

Binder | fold repression
B1 | 2.43
B2 | 2.79
B3 | 11.1
B4 | 6.18
B5 | 6.84
B6 | 4.3

Molecular target: T4, ECF31_34
T4 chain: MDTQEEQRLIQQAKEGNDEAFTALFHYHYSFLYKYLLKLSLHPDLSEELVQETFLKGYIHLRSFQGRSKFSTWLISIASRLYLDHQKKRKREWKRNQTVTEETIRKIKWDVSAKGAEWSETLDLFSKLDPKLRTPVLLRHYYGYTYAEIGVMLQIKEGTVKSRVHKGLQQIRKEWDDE

Binder | fold repression
B1 | 2.22
B2 | 22.7
B3 | 9.28
B4 | 8.35
B5 | 5.2
B6 | 3.08

Molecular target: T5, ECF02_2817
T5 chain: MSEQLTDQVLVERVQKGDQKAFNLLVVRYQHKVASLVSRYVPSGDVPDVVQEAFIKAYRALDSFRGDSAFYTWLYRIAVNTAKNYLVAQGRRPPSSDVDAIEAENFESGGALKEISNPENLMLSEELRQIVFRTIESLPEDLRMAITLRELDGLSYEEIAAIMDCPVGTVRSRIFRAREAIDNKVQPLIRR

Binder | fold repression
B1 | 1.56
B2 | 1.79
B3 | 5.75
B4 | 5.47
B5 | 6.36
B6 | 4.08

Molecular target: T6, ECF16_973
T6 chain: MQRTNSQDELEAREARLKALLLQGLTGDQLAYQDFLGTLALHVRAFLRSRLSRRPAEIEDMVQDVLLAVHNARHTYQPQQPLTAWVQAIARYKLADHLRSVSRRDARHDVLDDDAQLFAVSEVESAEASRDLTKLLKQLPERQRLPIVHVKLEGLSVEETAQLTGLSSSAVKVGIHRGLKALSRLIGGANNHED

Binder | fold repression
B1 | 1.73
B2 | 1.84
B3 | 9.87
B4 | 14.6
B5 | 3.39
B6 | 3.54

Molecular target: T7, ECF33_423
T7 chain: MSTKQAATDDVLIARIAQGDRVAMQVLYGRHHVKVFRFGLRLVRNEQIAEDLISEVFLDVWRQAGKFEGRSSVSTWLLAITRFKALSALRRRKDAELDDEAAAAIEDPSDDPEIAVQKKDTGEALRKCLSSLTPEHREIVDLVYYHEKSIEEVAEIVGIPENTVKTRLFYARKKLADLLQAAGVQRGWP

Binder | fold repression
B1 | 1.99
B2 | 2.25
B3 | 113
B4 | 84.3
B5 | 3.76
B6 | 3.3

Molecular target: T8, ECF12_807
T8 chain: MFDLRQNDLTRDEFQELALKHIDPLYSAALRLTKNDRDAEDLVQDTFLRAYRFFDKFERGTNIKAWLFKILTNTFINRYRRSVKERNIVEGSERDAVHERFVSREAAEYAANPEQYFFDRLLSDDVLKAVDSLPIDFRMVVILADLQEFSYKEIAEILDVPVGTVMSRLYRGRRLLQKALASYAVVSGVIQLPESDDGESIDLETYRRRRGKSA

Binder | fold repression
B1 | 3.12
B2 | 3.66
B3 | 7.97
B4 | 6.47
B5 | 10.1
B6 | 9.33

Molecular target: T9, ECF03_1198
T9 chain: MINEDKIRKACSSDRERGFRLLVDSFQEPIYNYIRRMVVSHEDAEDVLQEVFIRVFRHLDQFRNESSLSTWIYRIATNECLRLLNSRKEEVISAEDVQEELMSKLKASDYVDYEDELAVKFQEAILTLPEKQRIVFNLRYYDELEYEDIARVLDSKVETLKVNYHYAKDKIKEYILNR

Binder | fold repression
B1 | 1.96
B2 | 2.96
B3 | 21.3
B4 | 15
B5 | 6.26
B6 | 4.01

Molecular target: T10, ECF28_1088
T10 chain: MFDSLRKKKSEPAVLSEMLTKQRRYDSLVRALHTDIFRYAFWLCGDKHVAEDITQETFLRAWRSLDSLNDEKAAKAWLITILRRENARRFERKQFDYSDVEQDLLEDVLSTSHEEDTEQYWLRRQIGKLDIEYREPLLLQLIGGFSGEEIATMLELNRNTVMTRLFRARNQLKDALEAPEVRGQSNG

Binder | fold repression
B1 | 1.68
B2 | 1.59
B3 | 3.72
B4 | 3.17
B5 | 3.76
B6 | 3.31

Molecular target: T11, ECF14_1324
T11 chain: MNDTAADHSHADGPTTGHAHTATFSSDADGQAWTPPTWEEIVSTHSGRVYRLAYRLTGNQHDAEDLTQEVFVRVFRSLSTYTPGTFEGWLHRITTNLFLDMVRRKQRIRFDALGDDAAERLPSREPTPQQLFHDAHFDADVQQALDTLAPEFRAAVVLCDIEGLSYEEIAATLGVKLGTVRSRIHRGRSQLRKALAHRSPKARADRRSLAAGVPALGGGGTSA

Binder | fold repression
B1 | 1.7
B2 | 6.35
B3 | 44.6
B4 | 36
B5 | 13.1
B6 | 13.8

Molecular target: T12, ECF20_992
T12 chain: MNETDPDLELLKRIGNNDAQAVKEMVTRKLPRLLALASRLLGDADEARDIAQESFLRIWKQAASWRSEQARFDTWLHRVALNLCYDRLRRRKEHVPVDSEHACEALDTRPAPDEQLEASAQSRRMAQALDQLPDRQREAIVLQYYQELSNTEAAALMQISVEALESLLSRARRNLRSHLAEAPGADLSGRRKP

Binder | fold repression
B1 | 2.34
B2 | 2.35
B3 | 20.7
B4 | 14.2
B5 | 3.26
B6 | 5.31

Molecular target: T13, ECF11_3726
T13 chain: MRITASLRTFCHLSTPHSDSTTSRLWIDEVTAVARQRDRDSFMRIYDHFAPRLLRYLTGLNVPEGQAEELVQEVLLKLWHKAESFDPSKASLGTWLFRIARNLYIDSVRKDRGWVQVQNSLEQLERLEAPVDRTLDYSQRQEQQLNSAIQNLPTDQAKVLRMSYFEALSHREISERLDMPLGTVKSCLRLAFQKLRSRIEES

Binder | fold repression
B1 | 2.09
B2 | 5.86
B3 | 34.4
B4 | 29.3
B5 | 18.8
B6 | 11.6

Molecular target: T14, ECF22_1147
T14 chain: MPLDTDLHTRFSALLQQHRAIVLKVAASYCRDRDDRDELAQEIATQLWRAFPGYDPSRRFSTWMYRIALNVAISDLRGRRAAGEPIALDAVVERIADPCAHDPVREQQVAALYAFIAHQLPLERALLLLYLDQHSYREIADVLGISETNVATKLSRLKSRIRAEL

Binder | fold repression
B1 | 2.12
B2 | 3.62
B3 | 12.9
B4 | 9.02
B5 | 10.9
B6 | 8.31
